Test results as given in the supplement of paper PMC7877785.
± gives the uncertainty stated by the source.

Experiment: self-splicing fitness, log relative to wild type (ln ratio); higher = more splicing; Tetrahymena group I intron in knt gene, E. coli kanamycin selection, DiMSum; sequences stand for … in CUCUCU…GGAGGGAAAAGUUAUCAGGCAUGCACCUGGUAGCUAGUCUUUAAACCAAUAGAUUGCAUCGGUUUAAAAGGCAAGACCGUCAAAUUGCGGGAAAGGGGUCAACAGCCGUUCAGUACCAAGUCUCAGGGGAAACUUUGAGAUGGCCUUGCAAAGGGUAUGGUAAUAAGCUGACGGACAUGGUCCUAACCACGCAGCCAAGUCCUAAGUCAACAGAUCUUCUGUUGAUAUGGAUGCAGUUCACAGACUAAAUGUCGGUCGGGGAAGAUGUAUUCUUCUCAUAAGAUAUAGUCGGACCUCUCCUUAAUGGGAGCUAGCGGAUGAAGUGAUGCAACACUGGAGCCGCUGGGAACUAAUUUGUAUGCGAAAGUAUAUUGAUUAGUUUUGGAGUACUCGUGGUCG
Procedure, shortened: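 Six replicate transformations of E. coli BL21(DE3) with a pET-22b(+) library were grown overnight at 37°C or 30°C. The library randomised all eight P1ex-region intron nucleotides, the intron lying in the knt kanamycin-resistance gene, and plates were LB agar with or without 25 μg/mL kanamycin plus 100 μg/mL carbenicillin, 50 μM IPTG and 0.2% rhamnose. Pooled colonies were amplicon-sequenced on an Illumina HiSeq 2500, and fitness is the DiMSum error-weighted combination of wild-type-normalised replicate fold changes, kanamycin versus none.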

| Sequence | self-splicing fitness (ln) (30 °C) | self-splicing fitness (ln) (37 °C) |
| --- | --- | --- |
| AUGCAGCAAUAUUACGGGCC | -1.43 ± 0.1 | -1.02 ± 0.11 |
| ACAAAGCAAUAUUACGUGAC | -3.4 ± 0.11 | -1.37 ± 0.092 |
| UAGGAGCAAUAUUACGAGAC | -2.26 ± 0.29 |  |
| GCACAGCAAUAUUACGGUAU | -0.511 ± 0.038 | 0.102 ± 0.059 |
| UCUUAGCAAUAUUACGGUAU | -4.43 ± 0.39 | -2.85 ± 0.29 |
| GGUCAGCAAUAUUACGGAGG |  | -2.54 ± 0.36 |
| AGACAGCAAUAUUACGAGGU | -3.46 ± 0.16 | -1.87 ± 0.13 |
| CGACAGCAAUAUUACGUAUG | -1.26 ± 0.076 | -1.36 ± 0.1 |
| GGAUAGCAAUAUUACGCUUC | -3.86 ± 0.35 |  |
| GUUCAGCAAUAUUACGAGUG | -1.59 ± 0.18 | -0.332 ± 0.14 |
| GCCAAGCAAUAUUACGUGCG | -2 ± 0.089 | -0.737 ± 0.1 |
| GCCAAGCAAUAUUACGCCUG | -4.13 ± 0.39 | -1.13 ± 0.19 |
| UGAUAGCAAUAUUACGCGAC | -3.55 ± 0.28 |  |
| AGACAGCAAUAUUACGGGUU | -1.96 ± 0.1 | -1.12 ± 0.12 |
| UUUAAGCAAUAUUACGAGUA | -1.72 ± 0.19 | -1.06 ± 0.19 |
| UCGAAGCAAUAUUACGCACG | -1.8 ± 0.14 | -0.85 ± 0.14 |
| CUAUAGCAAUAUUACGUUCG | -0.385 ± 0.094 | -0.145 ± 0.14 |
| UACGAGCAAUAUUACGAAUU | -4.2 ± 0.46 | -3.21 ± 0.39 |
| UUGUAGCAAUAUUACGUUAU | -2.7 ± 0.41 | -2.1 ± 0.25 |
| UUGAAGCAAUAUUACGUGCA | -0.222 ± 0.068 | 0.447 ± 0.1 |
| AUACAGCAAUAUUACGACGC | -0.948 ± 0.13 | 0.227 ± 0.16 |
| CGUCAGCAAUAUUACGAAUU | -2.82 ± 0.2 | -0.915 ± 0.14 |

| Sequence | self-splicing fitness (ln) (30 °C) | self-splicing fitness (ln) (37 °C) |
| --- | --- | --- |
| GCUAAGCAAUAUUACGCAUU | -0.91 ± 0.065 | -0.163 ± 0.084 |
| UGAGAGCAAUAUUACGUUAA |  | -2.46 ± 0.3 |
| CGUUAGCAAUAUUACGGAAU |  | -2.07 ± 0.36 |
| CUGAAGCAAUAUUACGCAUU | -2.24 ± 0.12 | -2.45 ± 0.17 |
| AGCGAGCAAUAUUACGCCGG | -3.03 ± 0.27 | -2.44 ± 0.5 |
| CAUUAGCAAUAUUACGCAAG | -1.45 ± 0.1 | -0.813 ± 0.13 |
| UAUUAGCAAUAUUACGCCAG | -1.17 ± 0.28 |  |
| CAGAAGCAAUAUUACGUAGA | -3.54 ± 0.1 | -0.762 ± 0.075 |
| CGGGAGCAAUAUUACGCAAC | -2.66 ± 0.24 |  |
| ACACAGCAAUAUUACGAGAG | -3.65 ± 0.14 | -2.37 ± 0.12 |
| ACCUAGCAAUAUUACGACAC | -0.951 ± 0.1 | -0.536 ± 0.17 |
| GUAUAGCAAUAUUACGUGAG | -1.85 ± 0.13 | -1.42 ± 0.17 |
| UUUAAGCAAUAUUACGUCUG | -0.513 ± 0.1 | -0.114 ± 0.12 |
| UCAAAGCAAUAUUACGCAAC | -4.31 ± 0.42 |  |
| CAAUAGCAAUAUUACGUUGG | -1.9 ± 0.099 | -1.3 ± 0.11 |
| AAGCAGCAAUAUUACGCGCU | -2.53 ± 0.11 | -1.73 ± 0.11 |
| UGGCAGCAAUAUUACGAAAA | -0.512 ± 0.082 | -0.934 ± 0.1 |
| GGCCAGCAAUAUUACGUAGG | -2.19 ± 0.14 | -1.85 ± 0.18 |
| GUCUAGCAAUAUUACGCAGC | -2.29 ± 0.14 | -0.0809 ± 0.12 |
| GCCAAGCAAUAUUACGACCU | -1.34 ± 0.11 | -1.54 ± 0.15 |
| ACACAGCAAUAUUACGCAAC | -5.33 ± 0.36 | -1.88 ± 0.17 |
| CGUCAGCAAUAUUACGCUAG | -0.963 ± 0.098 | -0.795 ± 0.15 |

| Sequence | self-splicing fitness (ln) (30 °C) | self-splicing fitness (ln) (37 °C) |
| --- | --- | --- |
| CACUAGCAAUAUUACGGGGU | -3.32 ± 0.19 | -2.37 ± 0.2 |
| UAGUAGCAAUAUUACGAGAA |  | -1.76 ± 0.43 |
| GGCCAGCAAUAUUACGGAGC | -2.25 ± 0.18 | -0.92 ± 0.21 |
| AAGGAGCAAUAUUACGCGGU | -3.56 ± 0.26 | -1.37 ± 0.26 |
| CUUAAGCAAUAUUACGCACG | -1.62 ± 0.14 | -0.394 ± 0.16 |
| UGUCAGCAAUAUUACGCCGU | -1.42 ± 0.13 | -1.12 ± 0.15 |
| UGACAGCAAUAUUACGUACC | -1.78 ± 0.12 | -0.302 ± 0.14 |
| ACACAGCAAUAUUACGUCAA | -2.25 ± 0.19 | -1.99 ± 0.14 |
| CAAUAGCAAUAUUACGAAAA | -2.39 ± 0.34 |  |
| AGUUAGCAAUAUUACGGCGU | -0.00974 ± 0.12 | 0.274 ± 0.12 |
| CCAAAGCAAUAUUACGACUC | -2.53 ± 0.27 | -2.03 ± 0.43 |
| GAUAAGCAAUAUUACGAGCA | -2.12 ± 0.18 | -0.853 ± 0.16 |
| AAAUAGCAAUAUUACGACCG | -0.956 ± 0.15 | -0.441 ± 0.19 |
| GCAGAGCAAUAUUACGCUAC |  | -1.68 ± 0.32 |
| CACGAGCAAUAUUACGUUUU | -3.49 ± 0.15 | -2.94 ± 0.18 |
| AAUAAGCAAUAUUACGAGGA | -3.05 ± 0.43 | -1.94 ± 0.33 |
| AUCAAGCAAUAUUACGUCGA | -1.36 ± 0.068 | -0.157 ± 0.068 |
| ACGAAGCAAUAUUACGAUUA | -1.36 ± 0.077 | -0.917 ± 0.072 |
| GAACAGCAAUAUUACGGAAA | -2.42 ± 0.16 | -1.12 ± 0.14 |
| GUGGAGCAAUAUUACGUGCA | -2.14 ± 0.17 | -1.17 ± 0.16 |
